PMC12344899

Columns and labels:
Experiment in all cases: anti-GFP affinity gel immunoprecipitation and western blot densitometry
mCherry-A123 = details: HEK293T cells co-transfected, lysed at 2 dpt; parent: est. 0.97; read off a plot
mCherry-A171 = details: HEK293T cells co-transfected, lysed at 2 dpt; parent: est. 1.0; read off a plot
mCherry-A44 = details: HEK293T cells co-transfected, lysed at 2 dpt; parent: est. 1.0; read off a plot

| Substance | response (relative density (intrabody / Etf-2-GFP)) (mCherry-A123) | response (relative density (intrabody / Etf-2-GFP)) (mCherry-A171) | response (relative density (intrabody / Etf-2-GFP)) (mCherry-A44) |
| --- | --- | --- | --- |
| Etf-2 (full-length)–GFP (from UniProt Q2GHK1) Q245A | 0.84 | 0.83 | 0.25 |
| Etf-2 (full-length)–GFP (from UniProt Q2GHK1) R188A | 0.94 | 0.85 | 1.1 |
| Etf-2 (full-length)–GFP (from UniProt Q2GHK1) R188A; Q245A | 0.1 | 0.88 | 0.24 |
